In PMC3035937 (Journal of molecular biology, 2010):

T1: GST-SpRad9 (S. pombe, UniProt P26306 1-426)
T1 sequence (looked up): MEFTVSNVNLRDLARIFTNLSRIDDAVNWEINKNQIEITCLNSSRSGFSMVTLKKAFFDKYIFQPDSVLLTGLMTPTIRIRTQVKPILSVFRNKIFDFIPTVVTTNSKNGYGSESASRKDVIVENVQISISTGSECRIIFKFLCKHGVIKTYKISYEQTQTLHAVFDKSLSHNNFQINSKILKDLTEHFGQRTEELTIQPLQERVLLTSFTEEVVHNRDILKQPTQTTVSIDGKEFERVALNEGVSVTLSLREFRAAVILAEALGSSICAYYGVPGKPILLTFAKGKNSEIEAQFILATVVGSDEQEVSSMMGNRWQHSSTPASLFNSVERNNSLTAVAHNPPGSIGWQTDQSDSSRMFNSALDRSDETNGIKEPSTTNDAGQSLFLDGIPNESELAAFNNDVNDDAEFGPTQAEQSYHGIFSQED

B1: purified SpHst4 (SpHst4-His) (natural protein, S. pombe, UniProt Q9UR39 1-415, looked up)
chain: MKVEEHVPLIQESRKRKCQSSENASKRQQLLSKLPLRLHTGNENVDLSPLVSAIRKAKRIVVVTGAGISCDAGIPDFRSSEGLFSSLRAEYKLNCSGKELFDGSVYRDLKSVNIFHAMIRKLHMLSNNARPTDFHLFLSQLAQESKLLRLYTQNIDFLETRLEGLQTCIPLPQSAPWPTTIPLHGTLEVVSCTRCSFLKKFNPDIFDRNGVTVCPDCKTENEVRRIAGKRSVIEGCLRPRIVLYNEIHPDSESIGSVCSQDLKSRPDCLIVAGTSCKIPGVKRIIKEMSNCVHKQKGNVIWLNYDEPTKDFLNLCDLVVQGDLQIAIRRLKPLLDAPSWKLKSHSAKRTSKQKSSEQTKITSSTKITKAIGLNTKSNDSSKKDNTSFQLHQVLNSIEIPKVEIKQEVEYATPSPL
B2: GST-SpHus1 (natural protein, S. pombe, UniProt P78955 1-287, looked up)
chain: MRFKTRISNLYTLTRLVQALDKIGRFCWLRLMPETVNFVIVPDFRMTQVWSVLEVETIFEDYVVQSNADNVINLEVPIDNFYKALRSAANASDSTVRLSKKNNQPLLSLSTTWSGRAFGSNIVTHNIPVRVLSQSYVSVIKEPTAPEPDCHIFLPQLNFLRHVVDKYKSLSDRIIMSANMSGELQLSVNIPSARVSTKWKGLENPELDPSQVEDISRHPSQTRAPEEFVHMRLDSKDLVNMLKISSVAKRVIACFCEGHALVLYVYITDPEDEHTAVLTYYISTYVD
B3: GST-SpRad1 (natural protein, S. pombe, UniProt P22193 1-323, looked up)
chain: MFQAETVCLKQIQSTLRCIDFSKECTIEITSRGLRFAVEESQSLQAHAFLDKSLFQTFNFQGDSDGDTYMFQTMISPLLQSLSIYTDGKERISTSAWDQPTVNIMHKRGVICKVQYNGPGCPFIWEVEEMAGYATACELLTMECEDDVDINRLASTLCTKIIMKSNWLYDALVELDNNMGENLIIHTSSQKSTFLLRCVGALSTTEIEYPNEKSVLESFETDSENTYSYRFSLIRHALKALQVGSKVNLRIDENGTLSIQIMLVGQEGLCTFVDFCIVPLDLVSEDEEEDEEEEPAESNQSDNNVLRNDPNYRGDAETEDEDS

Assays:
GST-SpRad9 = molecular target: T1, GST-SpRad9; test: pull-down
[1] = molecular target: B1; test: pull-down

binding result (GST-SpRad9) | binding result [1] | Binder
binds | – | B1
– | binds | B2
– | binds | B3
